The values that follow come from US20260232820A1 (MEDICENNA THERAPEUTICS, published 2026).

For test [1], the target named is T1, IL-13Rα2 on human A375 and U87 cells (human, UniProt Q14627 27-380).
T1 sequence (looked up): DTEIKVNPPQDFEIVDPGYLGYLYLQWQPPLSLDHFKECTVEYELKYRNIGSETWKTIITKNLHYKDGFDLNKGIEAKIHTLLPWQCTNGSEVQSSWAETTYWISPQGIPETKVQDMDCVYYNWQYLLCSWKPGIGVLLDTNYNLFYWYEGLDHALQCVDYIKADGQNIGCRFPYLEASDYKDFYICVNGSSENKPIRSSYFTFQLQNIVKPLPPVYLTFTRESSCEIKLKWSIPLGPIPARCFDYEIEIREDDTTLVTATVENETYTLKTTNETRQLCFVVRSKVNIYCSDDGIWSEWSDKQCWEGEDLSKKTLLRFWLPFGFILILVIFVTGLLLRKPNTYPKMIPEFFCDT
Nature of the test: cell-based or functional assay.

Test [2] concerns the target IL-13Rα2 on engineered EMT6 cells (EMT6-IL13Rα2). Nature of the test: cell-based or functional assay.
The target of test [3] is T1, IL-13Rα2 on human A375 and U87 cells. Kind of test: cell-based or functional assay. This is another data set of the same source.
Test [4] has as its target IL-13Rα2 on engineered EMT6 cells (EMT6-IL13Rα2). Kind of test: cell-based or functional assay. This is another data set of the same source.
The next test has as its target T2, Fc-IL13 (1:1 KIH) (human, UniProt P35225 34-146).
T2 construct: also called Fc-IL13 KIH
Nature of the test: SPR. The method, then: Receptor binding was assessed using surface plasmon resonance (SPR) in which test constructs (i.e., Fc-MDNA132) were bound onto SPR chip surface and receptors (i.e., IL-13Rα1 and IL-13Rα2) were used as flow analytes (data not shown).
Representative SPR sensorgrams of Fc-MDNA132 and Fc-51.13 binding to […] and IL-13Rα2 is shown in (data not shown) and KD values are tabulated in Table 12. Variants contain the 5 core mutations of MDNA132 and an added mutation at amino acid position indicated in the name of the constructs.
A general note: SPR reads the build-up and loss of mass on a sensor chip optically.

B1: MDNA132.15-PE (other)
chain: GPGPVPPSTAHRELIRELVNITQNQKAPLCNGSMVWSINLTAGMYCAALESLINVSGCSAIEKTQRMLSGFCPHKVSAGQFSSLHVTGRKIEVAQFVKDLLLHLKKLFKEGQFNASGGPEGGSLAALTAHQACHLPLETFTRHRQPRGWEQLEQCGYPVQRLVALYLAARLSWNQVDQVIRNALASPGSGGDLGEAIREQPEQARLALTLAAAESERFVRQGTGNDEAGAANGPADSGDALLERNYPTGAEFLGDGGDVSFSTRGTQNWTVERLLQAHRQLEERGYVFVGYHGTFLEAAQSIVFGGVRARSQDLDAIWRGFYIAGDPALAYGYAQDQEPDARGRIRNGALLRVYVPRSSLPGFYRTSLTLAAPEAAGEVERLIGHPLPLRLDAITGPEEEGGRLETILGWPLAERTVVIPSAIPTDPRNVGGDLDPSSIPDKEQAISALPDYASQPGKPPKDEL
Consider B1, for which, in test [1], the “IC50 (pM), cytotoxicity assay, A375 cells, 48 h incubation” value is 1.02 pM and the “IC50 (pM), cytotoxicity assay, U87 cells, 48 h incubation” value is 11.4 pM. In addition, the “IC50 (pM), cytotoxicity assay, EMT6-IL13Rα2 cells, 48 h incubation” value in test [2] came to 2.1 pM. Moreover, in test [3], the “IC50 (pM), cytotoxicity assay, A375 cells, 72 h incubation” value came out at 1.1 pM and the “IC50 (pM), cytotoxicity assay, U87 cells, 72 h incubation” value was 208 pM. Moreover, the “IC50 (pM), cytotoxicity assay, EMT6-IL13Rα2 cells, 72 h incubation” value in test [4] is 1.13 pM.

B2: cpMDNA132.15-PE (other)
chain: MTAGMYCAALESLINVSGCSAIEKTQRMLSGFCPHKVSAGQFSSLHVTGRKIEVAQFVKDLLLHLKKLFKEGQFNGGNGGPGPVPPSTAHRELIRELVNITQNQKAPLCNGSMVWSINLASGGPEGGSLAALTAHQACHLPLETFTRHRQPRGWEQLEQCGYPVQRLVALYLAARLSWNQVDQVIRNALASPGSGGDLGEAIREQPEQARLALTLAAAESERFVRQGTGNDEAGAANGPADSGDALLERNYPTGAEFLGDGGDVSFSTRGTQNWTVERLLQAHRQLEERGYVFVGYHGTFLEAAQSIVFGGVRARSQDLDAIWRGFYIAGDPALAYGYAQDQEPDARGRIRNGALLRVYVPRSSLPGFYRTSLTLAAPEAAGEVERLIGHPLPLRLDAITGPEEEGGRLETILGWPLAERTVVIPSAIPTDPRNVGGDLDPSSIPDKEQAISALPDYASQPGKPPKDEL
For the molecule B2, in test [1], the “IC50 (pM), cytotoxicity assay, A375 cells, 48 h incubation” value turned out to be 1.5 pM and the “IC50 (pM), cytotoxicity assay, U87 cells, 48 h incubation” value came to 4.2 pM. Further, in test [2], the “IC50 (pM), cytotoxicity assay, EMT6-IL13Rα2 cells, 48 h incubation” value was 1 pM. Further, in test [3], the “IC50 (pM), cytotoxicity assay, A375 cells, 72 h incubation” value came to 1.3 pM and the “IC50 (pM), cytotoxicity assay, U87 cells, 72 h incubation” value amounted to 7.6 pM. In test [4], the “IC50 (pM), cytotoxicity assay, EMT6-IL13Rα2 cells, 72 h incubation” value turned out to be 1 pM.

B3: human IL-13Rα1 (receptor, UniProt P78552 22-343, looked up)
chain: GGGGAAPTETQPPVTNLSVSVENLCTVIWTWNPPEGASSNCSLWYFSHFGDKQDKKIAPETRRSIEVPLNERICLQVGSQCSTNESEKPSILVEKCISPPEGDPESAVTELQCIWHNLSYMKCSWLPGRNTSPDTNYTLYYWHRSLEKIHQCENIFREGQYFGCSFDLTKVKDSSFEQHSVQIMVKDNAGKIKPSFNIVPLTSRVKPDPPHIKNLSFHNDDLYVQWENPQNFISRCLFYEVEVNNSQTETHNVFYVQEAKCENPEFERNVENTSCFMVPGVLPDTLNTVRIRVKTNKLCYEDDKLWSNWSQEMSIGKKRNST
notes: also called IL-13αR1
In the test with Fc-IL13 (1:1 KIH), B3 showed a Kd of 470 nM.

B4: human IL-13Rα2 (receptor, UniProt Q14627 27-343, looked up)
chain: DTEIKVNPPQDFEIVDPGYLGYLYLQWQPPLSLDHFKECTVEYELKYRNIGSETWKTIITKNLHYKDGFDLNKGIEAKIHTLLPWQCTNGSEVQSSWAETTYWISPQGIPETKVQDMDCVYYNWQYLLCSWKPGIGVLLDTNYNLFYWYEGLDHALQCVDYIKADGQNIGCRFPYLEASDYKDFYICVNGSSENKPIRSSYFTFQLQNIVKPLPPVYLTFTRESSCEIKLKWSIPLGPIPARCFDYEIEIREDDTTLVTATVENETYTLKTTNETRQLCFVVRSKVNIYCSDDGIWSEWSDKQCWEGEDLSKKTLLR
notes: also called IL-13Ra2; human IL-13 decoy receptor
Regarding B4, in the test with Fc-IL13 (1:1 KIH), binding was put at a Kd of 0.15 nM.

In general, Kd refers to a measure of binding affinity in units of concentration.
